# Source: US20140065163A1 (MERCK SERONO S A, published 2014)
# Residue numbers refer to the chain shown, from its start. Names and notes keep the numbering of the source.
# T1: macaca GM-CSF (Macaca mulatta (identical in Macaca …, UniProt Q0MUT8 18-144 (Chlorocebus aethiops entry), limits assumed))
# T1 chain: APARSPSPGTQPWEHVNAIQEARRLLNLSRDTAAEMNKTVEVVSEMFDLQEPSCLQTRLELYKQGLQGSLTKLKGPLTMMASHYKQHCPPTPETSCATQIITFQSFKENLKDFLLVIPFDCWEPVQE
# B1: humanized parental 4K21 hVH hVL + H93Y (MS100305-A) (antibody, V domains shown)
# VH: EVQLVESGGGLVQPGGSLRLSCAASGFAFSAYDMSWVRQAPGKRLELVAYISSGGSSFYYPDTVKGRFTISRDNAKNSLYLQMNSLRAEDTAVYYCTRHLGFDYWGQGTLVTVSS
# VL: DIVMTQSPLSLPVTPGEPASISCRSSQSLVNSNGNTYLHWYLQKPGQSPQLLIYKVSNRFSGVPDRFSGSGSGTDFTLKISRVEAEDVGVYYCSQSTYVPPTFGQGTKVEIK
# B2: MSB0010602 4K21 (4K21 hVH S55K-T62S hVL S27eY-N28I-H34S-N53R-H93Y) (antibody, V domains shown)
# VH: B1 VH with S56K, T63S
# VL: B1 VL with S32Y, N33I, H39S, N58R
# notes: IgG
# B3: anti-GM-CSF 4K21 hIgG1K antibody (MSB0010259), recombinant chimeric 4K21 (antibody, V domains shown)
# VH: EVQLVESGGGLVKSGGSLKLSCAASGFAFSAYDMSWVRQTPEKRLELVAYISSGGSSFYYPDTVKGRFTISRDNAKNTLYLQMSSLKSEDTAMYYCTRHLGFDYWGQGTTLTVSS
# VL: DVVMTQTPLSLPVSLGDQASISCRSSQSLVNSNGNTYLHWFLQKPGQSPKLLIYKVSNRFSGVPDRFSGSGSGTDFTLKISRVEAEDLGVYFCSQSTHVPPTFGGGTKLEIK
# notes: Murine variable domains fused to human constant IgG1 heavy chain and kappa light chain domains
# B4: MSB0010599 4K21 (4K21 hVH S55R-T62S hVL N28I-H34S-N53R-H93Y) (antibody, V domains shown)
# VH: B1 VH with S56R, T63S
# VL: B1 VL with N33I, H39S, N58R
# notes: IgG
# B5: MSB0010600 4K21 (4K21 hVH S55R-T62S hVL S27eY-N28I-H34S-N53R-H93Y) (antibody, V domains shown)
# VH: B1 VH with S56R, T63S
# VL: B1 VL with S32Y, N33I, H39S, N58R
# B6: MSB0010595 4K21 (4K21 hVH S56V-T62S hVL S27eY-N28I-H34S-N53R-H93Y) (antibody, V domains shown)
# VH: B1 VH with S57V, T63S
# VL: B1 VL with S32Y, N33I, H39S, N58R
# B7: MSB0010603 4K21 (4K21 hVH S56V-T62S hVL N28I-H34S-N53R-H93Y) (antibody, V domains shown)
# VH: B1 VH with S57V, T63S
# VL: B1 VL with N33I, H39S, N58R
# notes: IgG
# Target: T1, macaca GM-CSF
# Test: cell-based or functional assay
"Fold improvement of humanized parental 4K21 (IC50, TF-1 proliferation) [fold]","Fold macaca/human I117 (IC50, TF-1 proliferation) [fold]","IC50, inhibition of GM-CSF induced TF-1 proliferation (32 pM GM-CSF) [pM]",Binder
5,2.6,111,B1

# Target: T2, human GM-CSF T117 (human, UniProt P04141 18-144)
# Test: cell-based or functional assay
"Fold human T117/I117 (IC50, TF-1 proliferation) [fold]","Fold improvement of humanized parental 4K21 (IC50, TF-1 proliferation) [fold]","IC50, inhibition of GM-CSF induced TF-1 proliferation (32 pM GM-CSF) [pM]",Binder
3.7,6,154,B1

# Target: T3, human GM-CSF I117 (human, UniProt P04141 18-144)
# Test: cell-based or functional assay
"Fold improvement of humanized parental 4K21 (IC50, TF-1 proliferation) [fold]","IC50, inhibition of GM-CSF induced TF-1 proliferation (32 pM GM-CSF) [pM]",Binder
2.3,42,B1

# Target: T1, macaca GM-CSF
# Test: cell-based or functional assay
# Remark: another data set of the same source
row,"IC50, inhibition of GM-CSF induced IL-8 secretion in U937 cells (65 pM GM-CSF) [pM]",Binder
1,232,B2

# Target: T2, human GM-CSF T117
# Test: cell-based or functional assay
# Remark: another data set of the same source
row,"IC50, inhibition of GM-CSF induced IL-8 secretion in U937 cells (65 pM GM-CSF) [pM]",Binder
1,177,B2

# Target: T3, human GM-CSF I117
# Test: cell-based or functional assay
# Remark: another data set of the same source
row,"IC50, inhibition of GM-CSF induced IL-8 secretion in U937 cells (65 pM GM-CSF) [pM]",Binder
1,267,B2

# Target: T1, macaca GM-CSF
# Test: cell-based or functional assay
# Remark: another data set of the same source
"Fold improvement of 4K21 H93Y alone on macaca (IC50, TF-1 proliferation) [fold]","Fold improvement of humanized parental 4K21 on macaca (IC50, TF-1 proliferation) [fold]","Fold macaca/human I117 (IC50, TF-1 proliferation) [fold]","IC50, inhibition of GM-CSF induced TF-1 proliferation (32 pM GM-CSF) [pM]",Binder
0.1,0.7,9.3,1220,B3
1.8,15,3,54,B4
2.6,21,1.1,37,B5
2.2,18,1.2,44,B6
1,8,3.2,96,B1
4,33,1.2,24,B2
1.2,10,2.1,82,B7

# Target: T2, human GM-CSF T117
# Test: cell-based or functional assay
# Remark: another data set of the same source
# Target sequence in this assay (P04141 18-144 I117T limits assumed): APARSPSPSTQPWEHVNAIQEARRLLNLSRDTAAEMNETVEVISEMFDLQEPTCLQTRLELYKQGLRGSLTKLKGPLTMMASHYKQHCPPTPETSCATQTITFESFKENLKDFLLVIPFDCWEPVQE
"Fold human T117/I117 (IC50, TF-1 proliferation) [fold]","Fold improvement of 4K21 H93Y alone on T117 (IC50, TF-1 proliferation) [fold]","Fold improvement of humanized parental 4K21 on T117 (IC50, TF-1 proliferation) [fold]","IC50, inhibition of GM-CSF induced TF-1 proliferation (32 pM GM-CSF) [pM]",Binder
10.8,0.1,1,1410,B3
1,9.5,77,18,B4
1.4,3.6,30,47,B5
1.2,3.7,30,46,B6
5.8,1,8,172,B1
1.7,5,41,34,B2
0.9,5.1,42,34,B7

# Target: T3, human GM-CSF I117
# Test: cell-based or functional assay
# Remark: another data set of the same source
# Target sequence in this assay (P04141 18-144 limits assumed): as the sequence (P04141 18-144 I117T limits assumed) above, with T100I counted along it
"Fold improvement of 4K21 H93Y alone on I117 (IC50, TF-1 proliferation) [fold]","Fold improvement of humanized parental 4K21 on I117 (IC50, TF-1 proliferation) [fold]","IC50, inhibition of GM-CSF induced TF-1 proliferation (32 pM GM-CSF) [pM]",Binder
0.2,0.9,130,B3
1.6,6.7,18,B4
0.9,3.6,33,B5
0.8,3.2,37,B6
1,4.1,30,B1
1.5,6,20,B2
0.8,3.1,39,B7

# Target: T1, macaca GM-CSF
# Test: KinExA, affinity in solution
# Description: (§1) The 4K21 and reference antibodies were incubated at concentration below the expected Kd with serial dilutions of human GM-CSF I117 or T117, or macaca GM-CSF up to equilibrium. The remaining free antibody was measured in a Kinetic exclusion assay with the KinExA® instrument. Kd was calculated by fitting the curve of the signal obtained versus the GM-CSF concentrations. The average of two experiments using different IgG concentrations was calculated.
row,Kd [nM],Binder
1,0.104,B3

# Target: T2, human GM-CSF T117
# Test: KinExA, affinity in solution
# Description: as §1
row,Kd [nM],Binder
1,0.174,B3

# Target: T3, human GM-CSF I117
# Test: KinExA, affinity in solution
# Description: as §1
row,Kd [nM],Binder
1,0.017,B3

# Target: T4, human GM-CSF A117 mutant (human, UniProt P04141 18-144)
# T4 construct: also called hGM-CSF A117; A117 protein
# Test: competition ELISA: antibody on coated wild-type human GM-CSF, competitor soluble human GM-CSF A117; single condition, competitor concentration not shown
row,binding result,Binder
1,binds,B4
2,binds,B2
3,binds,B7
